Results published in patent US8062638 (Chugai, dated 2011).

Experiments:
[1] = molecular target: T1, human tissue factor (TF) on cells (human, UniProt P13726 33-295); experiment: cell ELISA on fixed J82 cells expressing TF
T1 construct: also called human TF; the antigen

[2] = molecular target: T1, human tissue factor (TF) on cells; experiment: cell ELISA on fixed J82 cells expressing TF; chimeric antibody is the reference

binding result [1] | binding result [2] | Binder
binds | – | chimeric H chain / humanized L chain version c antibody (antibody, V domains shown, Expressed from N5KG4P (human IgG4-type)) VH: EVQLQQSGTNLVRPGALVKLSCKGSGFNIKDYYMHWVKQRPEQGLEWIGGNDPANGHSMYDPKFQGKASITADTSSNTAYLQLSSLTSEDTAVYFCARDSGYAMDYWGQGTSVTVSS VL: DIQMTQSPSSLSASVGDRVTITCKASQDIKSFLSWYQQKPGKAPKLLIYYATSLADGVPSRFSGSGSGTDYTLTISSLQPEDIATYYCLQHGESPYTFGGGTKVEIK
– | binds | chimeric ATR-5 antibody (H chain chimeric/L chain chimeric) (antibody, V domains shown, Mouse ATR-5 V regions on human C regions; Both IgG1-type (N5KG1(V)) and IgG4-type (N5KG4P) vectors were made; also called ch-ch; chimeric antibody) VH: EVQLQQSGTNLVRPGALVKLSCKGSGFNIKDYYMHWVKQRPEQGLEWIGGNDPANGHSMYDPKFQGKASITADTSSNTAYLQLSSLTSEDTAVYFCARDSGYAMDYWGQGTSVTVSS VL: DIKMTQSPSSMYASLGERVTITCKASQDIKSFLSWYQQKPWKSPKTLIYYATSLADGVPSRFSGSGSGQDYSLTINNLESDDTATYYCLQHGESPYTFGGGTKLEIK
binds | – | humanized H chain version a / humanized L chain version a antibody (antibody, V domains shown, Expressed from N5KG4P (human IgG4-type)) VH: QVQLLESGAVLARPGTSVKISCKASGFNIKDYYMHWVKQRPGQGLEWIGGNDPANGHSMYDPKFQGRAKLTAATSASIAYLEFSSLTNEDSAVYYCARDSGYAMDYWGQGTLVTVSS VL: DIQMTQSPSSLSASVGDRVTITCKASQDIKSFLSWYQQKPGKAPKLLIYYATSLADGVPSRFSGSGSGTDFTLTISSLQPEDFATYYCLQHGESPYTFGGGTKVEIK
binds | – | humanized H chain version a / chimeric L chain antibody (antibody, V domains shown, Expressed from N5KG4P (human IgG4-type)) VH: QVQLLESGAVLARPGTSVKISCKASGFNIKDYYMHWVKQRPGQGLEWIGGNDPANGHSMYDPKFQGRAKLTAATSASIAYLEFSSLTNEDSAVYYCARDSGYAMDYWGQGTLVTVSS VL: DIKMTQSPSSMYASLGERVTITCKASQDIKSFLSWYQQKPWKSPKTLIYYATSLADGVPSRFSGSGSGQDYSLTINNLESDDTATYYCLQHGESPYTFGGGTKLEIK
